The text below walks through data of US20250019450A1 (DIAGONAL THERAPEUTICS, published 2025).

Changes are numbered by the printed parent chain.

The target of assay [1] is T1, cyno IL-12RB2 with C-terminal HA tag, transiently expressed on HEK-293T cells (cyno, UniProt A0A2K5VNI7 24-860).
T1 construct: whole, on cells; also called cyno IL-12Rβ2
T1 sequence: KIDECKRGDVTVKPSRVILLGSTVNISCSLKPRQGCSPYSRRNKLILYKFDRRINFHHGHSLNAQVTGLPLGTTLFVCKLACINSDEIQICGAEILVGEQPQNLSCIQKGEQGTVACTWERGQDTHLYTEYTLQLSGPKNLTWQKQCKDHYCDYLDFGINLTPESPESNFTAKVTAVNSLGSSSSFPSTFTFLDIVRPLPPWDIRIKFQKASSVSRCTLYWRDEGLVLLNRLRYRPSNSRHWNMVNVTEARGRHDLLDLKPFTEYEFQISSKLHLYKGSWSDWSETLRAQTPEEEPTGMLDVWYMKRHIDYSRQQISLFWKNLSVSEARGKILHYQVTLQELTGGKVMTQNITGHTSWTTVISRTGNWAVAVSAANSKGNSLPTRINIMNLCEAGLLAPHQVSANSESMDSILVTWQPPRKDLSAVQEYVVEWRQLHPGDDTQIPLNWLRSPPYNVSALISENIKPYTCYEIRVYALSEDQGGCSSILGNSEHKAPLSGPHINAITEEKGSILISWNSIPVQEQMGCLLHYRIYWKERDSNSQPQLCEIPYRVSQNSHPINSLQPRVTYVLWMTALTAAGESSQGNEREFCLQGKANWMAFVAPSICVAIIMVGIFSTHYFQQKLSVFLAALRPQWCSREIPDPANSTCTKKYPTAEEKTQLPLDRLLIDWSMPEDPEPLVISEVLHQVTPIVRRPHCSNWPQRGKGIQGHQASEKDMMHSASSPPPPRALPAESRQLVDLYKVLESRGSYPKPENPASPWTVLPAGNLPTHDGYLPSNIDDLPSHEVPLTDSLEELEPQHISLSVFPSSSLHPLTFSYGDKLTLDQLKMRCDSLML
The experiment in a line: FACS, periplasmic extract, HEK-293T.

The target of assay [2] is T2, human IL-12RB2 with C-terminal HA tag, transiently expressed on HEK-293T cells (human, UniProt Q99665 24-862).
T2 construct: whole, on cells; also called human IL-12Rβ2
T2 sequence (looked up): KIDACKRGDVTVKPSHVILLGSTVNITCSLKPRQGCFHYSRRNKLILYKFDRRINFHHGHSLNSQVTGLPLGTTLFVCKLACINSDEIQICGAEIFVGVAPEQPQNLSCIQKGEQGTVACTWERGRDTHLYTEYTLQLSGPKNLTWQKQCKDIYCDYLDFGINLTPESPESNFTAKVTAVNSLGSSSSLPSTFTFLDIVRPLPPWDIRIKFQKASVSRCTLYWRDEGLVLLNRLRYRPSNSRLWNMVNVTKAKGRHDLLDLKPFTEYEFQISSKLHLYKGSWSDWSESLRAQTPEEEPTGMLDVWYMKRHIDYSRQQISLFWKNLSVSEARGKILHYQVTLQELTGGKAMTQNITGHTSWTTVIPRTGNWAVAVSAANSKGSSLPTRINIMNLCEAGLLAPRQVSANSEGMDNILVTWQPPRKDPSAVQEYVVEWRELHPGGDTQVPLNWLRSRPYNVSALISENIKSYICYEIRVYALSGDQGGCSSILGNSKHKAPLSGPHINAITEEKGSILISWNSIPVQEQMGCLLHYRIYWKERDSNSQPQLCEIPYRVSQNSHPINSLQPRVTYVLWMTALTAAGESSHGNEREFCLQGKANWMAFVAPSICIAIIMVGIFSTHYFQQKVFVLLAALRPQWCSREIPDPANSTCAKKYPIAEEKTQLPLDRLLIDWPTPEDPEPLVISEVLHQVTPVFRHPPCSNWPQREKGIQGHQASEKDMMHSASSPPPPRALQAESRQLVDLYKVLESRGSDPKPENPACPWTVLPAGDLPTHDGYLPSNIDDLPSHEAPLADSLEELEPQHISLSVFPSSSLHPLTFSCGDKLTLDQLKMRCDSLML
The assay is described as follows: FACS, periplasmic extract, HEK-293T. A general note: Flow cytometry measures light scatter and fluorescence of single cells or particles in a stream.

Assay [3] has as its target T3, human IL-12RB1 overexpressed on 293T cells (Example 2) (human, UniProt P42701 24-662).
T3 construct: whole, on cells
The assay is described as follows: FACS, hybridoma supernatant, 293T.

The target in assay [4] is T4, cyno IL-12RB1 overexpressed on 293T cells (Example 2) (cyno, UniProt A0A2K5VWV1 24-662).
T4 construct: whole, on cells
The experiment in a line: FACS, hybridoma supernatant, 293T.

In assay [5] the target is T5, human IL-12Rβ1-his (Acro Biosystems), biotinylated (human, UniProt P42701 24-545, biotinylated).
T5 construct: bought; captured on Neutravidin in the ELISA; also called Bio-huIL-12Rβ1-His
The assay is described as follows: ELISA, periplasmic extract. (In general: In an ELISA, binding on a coated surface is turned into a signal by an enzyme label.)

The target of assay [6] is T6, cyno IL-12RB1 with C-terminal FLAG tag, transiently expressed on HEK-293T cells (cyno, UniProt A0A2K5VWV1 24-662).
T6 construct: whole, on cells
The assay is described as follows: FACS, periplasmic extract, HEK-293T.

Assay [7] addresses T7, human IL-12RB1 with C-terminal FLAG tag, transiently expressed on HEK-293T cells (human, UniProt P42701 24-662).
T7 construct: whole, on cells
The experiment in a line: FACS, periplasmic extract, HEK-293T.

Assay [8] addresses human IL-12 receptor (IL-12Rβ1 and IL-12Rβ2) on HEK-Blue IL-12 cells (human, UniProt P42701 24-662; Q99665 24-862). The experiment in a line: cell-based or functional assay.
The target of assay [9] is human IL-12Rβ1, Acro (BLI analyte) (human, UniProt P42701 24-545). The experiment in a line: BLI (Octet), antibody on AHC tip. On the technique in general: In BLI a coated tip is dipped into the sample, and binding shifts an interference pattern.

B1: VHH211B2 (VHH)
VHH: QVQLVESGGGLVQAGNSLRLSCAASGRTFSSYVVGWFRQAPGKEREFVGRISWSGARTYYADSVKGRFTISRDNAKNTVYLQMNSLKPEDTAVYYCAADLKWEVLLSEHFEYWGQGTQVTVSS
With B1, the figures for the FOB in [1] and in assay [2] were 0.99 fold and 1.64 fold, respectively.

B2: 85801_10K15 (antibody, V domains shown)
VH: QITLKESGPTLVKPTQTLTLTCTFFGFSLNTGGVGVGWIRQPPGKALEWLTLIYWNDDKRYSPSLKSRLTITKDTSKNQVVLTMTNMDPVDTATYYCAHTLRWYHGFDIWGQGTMVTVSS
VL: QTVVTQEPSFSVSPGGTVTLTCGLTSGSVSTSYYPSWYQQTPGQAPRTLIYSTYTRSSGVPDRFSGSILGNKAALTITGAQADDESDYYCVLYMGSGIWVFGGGTKLTVL
notes: also called 85801_10K15A
As for B2, the entries for the “Fold over parental 293T” value in assay [3] and in [4] were 57 fold and 21 fold, respectively.

B3: VHH321B1 (VHH)
VHH: QVQLVESGGGLVQPGGSLRLSCIASGFTFSDYAMKWVRRPPGKGLEWVSVIDSEGPTIKYSDAVRGRFTISRDNAKNTLYLQMNSLKPEDTAVYYCAKSNGGSAFSSVLYTDRGQGTQVTVSS
On to B3, for which the OD450 nm in assay [5] turned out to be 1.06. For the same molecule, the FOB came to 93 fold in assay [6] and 119 fold in assay [7].

B4: DGL421 (bispecific antibody, human IgG1, lambda)
heavy 1: not shown
heavy 2: QVQLQESGPGLVKPSQTLSLTCTVSGGSITTNYYYWSWIRQPPGKGLEWMGAIAYSGSTYYSPSLKSRTSISRDTSKNQFTLQLSSVTPEDTAVYYCASGINFYSNYPTLNEYDYWGQGTQVTVEPKSSDKTHTCPPCPAPEAAGAPSVFLFPPKPKDTLMISRTPEVTCVVVDVSHEDPEVKFNWYVDGVEVHNAKTKPREEQYNSTYRVVSVLTVLHQDWLNGKEYKCKVSNKALPAPIEKTISKAKGQPREPQVCTLPPSRDELTKNQVSLSCAVKGFYPSDIAVEWESNGQPENNYKTTPPVLDSDGSFFLVSKLTVDKSRWQQGNVFSCSVMHEALHNRFTQKSLSLSPG
light: QTVVTQEPSFSVSPGGTVTLTCGLTSGSVSTSYYPSWYQQTPGQAPRTLIYSTYTRSSGVPDRFSGSILGNKAALTITGAQADDESDYYCVLYMGSGIWVFGGGTKLTVLGQPKAAPSVTLFPPSSEELQANKATLVCLISDFYPGAVTVAWKADSSPVKAGVETTTPSKQSNNKYAASSYLSLTPEQWKSHRSYSCQVTHEGSTVEKTVAPTECS
notes: 85801_10K15A x 190B2
In general, EC50 refers to the concentration that produces a half-maximal response. The Kd is the equilibrium constant for the complex coming apart. As to B4, in assay [8], the concentration for a half-maximal effect (EC50) was 1.1e-09 M (implied) and the “Max Absorbance” value was found to be 0.9. In assay [9], this molecule displayed a Kd of 6.06 nM.

B5: VHH241B2 (VHH)
VHH: QVQLVESGGGLVQLGDSLRLSCAASGRGFSSWTMAWFRQALGKRREFVAAITATGARTCSAESEGRFTISRDNAKNMVFLQMNSLKAEDTAVYYCAATGIASWDPGMADKYTYWGQGTQVTVSS
B5 showed an FOB in assay [1] of 2.37 fold.

B6: VHH277B2 (VHH)
VHH: B5 VHH with G99E, S102G, A108G, T112P
Consider B6, for which the figures for the FOB in assay [1] and in [2] were 1.55 fold and 1.21 fold, respectively.

B7: VHH229B2 (VHH)
VHH: QVQLVESGGGLVQAGGSLRLSCAASGRTFSSYAMGWFRQAPGKEREFVSAISWNGGSRYYVESVEGRFTISRDNAKNTVYLQMNSLKPEDTAVYYCAASRIYTNYVARSYEYDDWGQGTQVTVSS
Consider B7, for which the FOB in [1] is 1 fold; in assay [2], 1.42 fold.

B8: VHH216B2 (VHH)
VHH: QVQLVESGGGLVQPGGSLRLSCATSEHTFGTYRMGWFRQAPGKEREFVAGISWTGQTTYYAASVKGRFAISKDNAKNTVYLQMNTLKSDDTAVYYCAVETNNLGRWDRPSEYDYWGQGTQVTVSS
As for B8, the FOB in assay [1] turned out to be 0.98 fold.

B9: 85801_04G19 (antibody, V domains shown)
VH: QVQLQESGPGLVKPSETLSLTCTVSGGSISSYYWSWIRQSAGKELEWIGRIYTSGSTIYNPSLKSRVTMSVDPSKNQFSLKLSSVTAADTAVYYCANSRSYPHDAFDIWGQGTMVTVSS
VL: DIQLTQSPSFLSASVGYRVTITCRASQGISSYLAWYQQKPGKAPQLLIYAASTLQSGVPSRFSGRGSGTEFTLTISSLQPEDFATYYCQQLNGYPFTFGPGTKVNIK
notes: also called 85801_04G19A
With B9, the “Fold over parental 293T” value in assay [3] was found to be 262 fold; in [4], 116 fold.
